This passage reports heterodimer formation ratio (%) results from US20260217835.

Holding throughout (assay): SEC area ratio of heteromultimer after coexpression of full-length heavy chain, light chain and Fc fragment in Expi293F
For series [1], the target named is IgG1 Fc fragment with CH3 modification T394W/F405A (SEQ ID NO: 64).
Series [2] concerns the target T1, IgG1 Fc fragment with CH3 modification E356K/D399K/K409E/K439E (SEQ ID NO: 68).
T1 chain: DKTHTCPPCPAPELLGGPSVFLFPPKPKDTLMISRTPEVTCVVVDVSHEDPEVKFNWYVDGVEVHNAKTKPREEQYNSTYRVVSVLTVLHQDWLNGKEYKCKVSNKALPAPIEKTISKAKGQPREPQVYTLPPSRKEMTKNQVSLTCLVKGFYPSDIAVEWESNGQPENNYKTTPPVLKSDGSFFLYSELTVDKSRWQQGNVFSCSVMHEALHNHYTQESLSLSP

In series [3] the target is T2, IgG1 Fc fragment with CH3 modification K392D/D399K/K409D (SEQ ID NO: 72).
T2 chain: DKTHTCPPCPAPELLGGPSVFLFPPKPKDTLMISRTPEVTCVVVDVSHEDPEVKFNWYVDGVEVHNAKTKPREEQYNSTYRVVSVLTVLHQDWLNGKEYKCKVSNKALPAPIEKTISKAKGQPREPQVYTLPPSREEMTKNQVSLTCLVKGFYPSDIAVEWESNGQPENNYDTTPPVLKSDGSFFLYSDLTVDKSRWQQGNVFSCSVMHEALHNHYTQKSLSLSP

The target in series [4] is T3, IgG1 Fc fragment with CH3 modification T350V/L351Y/T366L/K392L/T394W/F405A/Y407V (SEQ ID NO: 77).
T3 chain: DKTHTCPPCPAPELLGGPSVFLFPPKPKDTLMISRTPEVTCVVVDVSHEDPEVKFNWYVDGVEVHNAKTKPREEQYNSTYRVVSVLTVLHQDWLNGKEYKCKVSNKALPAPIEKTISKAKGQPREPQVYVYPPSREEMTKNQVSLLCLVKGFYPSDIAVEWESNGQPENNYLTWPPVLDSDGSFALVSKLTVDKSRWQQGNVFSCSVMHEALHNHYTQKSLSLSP

The target in series [5] is T4, IgG1 Fc fragment with CH3 modification K392L/T394W/F405A/Y407V (SEQ ID NO: 70).
T4 chain: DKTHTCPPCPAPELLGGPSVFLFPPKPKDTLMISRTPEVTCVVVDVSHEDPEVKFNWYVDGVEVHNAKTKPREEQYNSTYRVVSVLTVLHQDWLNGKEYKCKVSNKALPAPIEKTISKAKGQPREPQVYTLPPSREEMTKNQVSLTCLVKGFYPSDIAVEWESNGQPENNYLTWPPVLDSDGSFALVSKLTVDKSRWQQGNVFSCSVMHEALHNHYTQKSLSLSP

B1: full-length IgG heavy chain with CH3 modification Y349C/E357C/K392D/D399K (SEQ ID NO: 51), coexpressed with light chain SEQ ID NO: 61 (protein)
chain 1: QVQLQESGPGLVRPSQTLSLTCTVSGYSITSDHAWSWVRQPPGRGLEWIGYISYSGITTYNPSLKSRVTMLRDTSKNQFSLRLSSVTAADTAVYYCARSLARTTAMDYWGQGSLVTVSSASTKGPSVFPLAPSSKSTSGGTAALGCLVKDYFPEPVTVSWNSGALTSGVHTFPAVLQSSGLYSLSSVVTVPSSSLGTQTYICNVNHKPSNTKVDKRVEPKSCDKTHTCPPCPAPELLGGPSVFLFPPKPKDTLMISRTPEVTCVVVDVSHEDPEVKFNWYVDGVEVHNAKTKPREEQYNSTYRVVSVLTVLHQDWLNGKEYKCKVSNKALPAPIEKTISKAKGQPREPQVCTLPPSRECMTKNQVSLTCLVKGFYPSDIAVEWESNGQPENNYDTTPPVLKSDGSFFLYSKLTVDKSRWQQGNVFSCSVMHEALHNHYTQKSLSLSP
chain 2: not shown
As to B1, the heterodimer formation ratio (%) in series [1] came to 0%; in series [2], 0%; in series [3] it was 9%; in series [4], 0%; in series [5], 0%.

B2: full-length IgG heavy chain with CH3 modification T350V/L351Y/T366L/K392L/T394W/F405A/Y407V (SEQ ID NO: 60), coexpressed with light chain SEQ ID NO: 61 (protein)
chain 1: QVQLQESGPGLVRPSQTLSLTCTVSGYSITSDHAWSWVRQPPGRGLEWIGYISYSGITTYNPSLKSRVTMLRDTSKNQFSLRLSSVTAADTAVYYCARSLARTTAMDYWGQGSLVTVSSASTKGPSVFPLAPSSKSTSGGTAALGCLVKDYFPEPVTVSWNSGALTSGVHTFPAVLQSSGLYSLSSVVTVPSSSLGTQTYICNVNHKPSNTKVDKRVEPKSCDKTHTCPPCPAPELLGGPSVFLFPPKPKDTLMISRTPEVTCVVVDVSHEDPEVKFNWYVDGVEVHNAKTKPREEQYNSTYRVVSVLTVLHQDWLNGKEYKCKVSNKALPAPIEKTISKAKGQPREPQVYVYPPSREEMTKNQVSLLCLVKGFYPSDIAVEWESNGQPENNYLTWPPVLDSDGSFALVSKLTVDKSRWQQGNVFSCSVMHEALHNHYTQKSLSLSP
chain 2: not shown
Take B2: the heterodimer formation ratio (%) is 6% in series [1]; 0% in series [2]; 0% in series [3]; 51% in series [4]; 66% in series [5].

B3: full-length IgG heavy chain with CH3 modification E345R/Q347R/K360D/T366V/D399M/Y407A/K409V (SEQ ID NO: 55), coexpressed with light chain SEQ ID NO: 61 (protein)
chain 1: QVQLQESGPGLVRPSQTLSLTCTVSGYSITSDHAWSWVRQPPGRGLEWIGYISYSGITTYNPSLKSRVTMLRDTSKNQFSLRLSSVTAADTAVYYCARSLARTTAMDYWGQGSLVTVSSASTKGPSVFPLAPSSKSTSGGTAALGCLVKDYFPEPVTVSWNSGALTSGVHTFPAVLQSSGLYSLSSVVTVPSSSLGTQTYICNVNHKPSNTKVDKRVEPKSCDKTHTCPPCPAPELLGGPSVFLFPPKPKDTLMISRTPEVTCVVVDVSHEDPEVKFNWYVDGVEVHNAKTKPREEQYNSTYRVVSVLTVLHQDWLNGKEYKCKVSNKALPAPIEKTISKAKGQPRRPRVYTLPPSREEMTDNQVSLVCLVKGFYPSDIAVEWESNGQPENNYKTTPPVLMSDGSFFLASVLTVDKSRWQQGNVFSCSVMHEALHNHYTQKSLSLSP
chain 2: not shown
For the protein B3, the heterodimer formation ratio (%) in series [1], in series [2], in series [3], in series [4] and in series [5] was 0% each time.

B4: full-length IgG heavy chain with CH3 modification E345R/K360E/D399M/Y407A/K409V (SEQ ID NO: 58), coexpressed with light chain SEQ ID NO: 61 (protein)
chain 1: QVQLQESGPGLVRPSQTLSLTCTVSGYSITSDHAWSWVRQPPGRGLEWIGYISYSGITTYNPSLKSRVTMLRDTSKNQFSLRLSSVTAADTAVYYCARSLARTTAMDYWGQGSLVTVSSASTKGPSVFPLAPSSKSTSGGTAALGCLVKDYFPEPVTVSWNSGALTSGVHTFPAVLQSSGLYSLSSVVTVPSSSLGTQTYICNVNHKPSNTKVDKRVEPKSCDKTHTCPPCPAPELLGGPSVFLFPPKPKDTLMISRTPEVTCVVVDVSHEDPEVKFNWYVDGVEVHNAKTKPREEQYNSTYRVVSVLTVLHQDWLNGKEYKCKVSNKALPAPIEKTISKAKGQPRRPQVYTLPPSREEMTENQVSLTCLVKGFYPSDIAVEWESNGQPENNYKTTPPVLMSDGSFFLASVLTVDKSRWQQGNVFSCSVMHEALHNHYTQKSLSLSP
chain 2: not shown
As for B4, the heterodimer formation ratio (%) in series [1] worked out at 0%; in series [2], 0%; in series [3], 3%; in series [4] it was 0%; in series [5], 0%.

B5: full-length IgG heavy chain with CH3 modification E356K/K392D/D399K/K409D (SEQ ID NO: 56), coexpressed with light chain SEQ ID NO: 61 (protein)
chain 1: QVQLQESGPGLVRPSQTLSLTCTVSGYSITSDHAWSWVRQPPGRGLEWIGYISYSGITTYNPSLKSRVTMLRDTSKNQFSLRLSSVTAADTAVYYCARSLARTTAMDYWGQGSLVTVSSASTKGPSVFPLAPSSKSTSGGTAALGCLVKDYFPEPVTVSWNSGALTSGVHTFPAVLQSSGLYSLSSVVTVPSSSLGTQTYICNVNHKPSNTKVDKRVEPKSCDKTHTCPPCPAPELLGGPSVFLFPPKPKDTLMISRTPEVTCVVVDVSHEDPEVKFNWYVDGVEVHNAKTKPREEQYNSTYRVVSVLTVLHQDWLNGKEYKCKVSNKALPAPIEKTISKAKGQPREPQVYTLPPSRKEMTKNQVSLTCLVKGFYPSDIAVEWESNGQPENNYDTTPPVLKSDGSFFLYSDLTVDKSRWQQGNVFSCSVMHEALHNHYTQKSLSLSP
chain 2: not shown
Turning to B5, the heterodimer formation ratio (%) in series [1] stood at 0%; in series [2], 53%; in series [3], 51%; in series [4], 0%; in series [5], 0%.
